Here are results for 2 substances from US20180214568A1.

The target of assay [1] is CD56 on the surface of human neuroblastoma cells (human) (UniProt P13591). The assay is described as follows: flow cytometry, MY31 staining of Kelly cells after overnight treatment with 25 nM m906 (remaining surface CD56).
For assay [2] the target is unchanged. The experiment in a line: flow cytometry, MY31 staining of Kelly cells after overnight treatment with 25 nM control IgG. Background: In flow cytometry, cells or beads pass a laser one at a time.
The target is the same in assay [3]. The assay is described as follows: flow cytometry, MY31 staining of Kelly cells after overnight treatment with 12.5 nM m906 (remaining surface CD56).
Assay [4] has the same target. The assay is described as follows: flow cytometry, MY31 staining of Kelly cells after overnight treatment with 50 nM m906 (remaining surface CD56).
Assay [5] has the same target. The experiment in a line: flow cytometry, MY31 staining of SKNAS cells after overnight treatment with 50 nM m906 (remaining surface CD56).
For assay [6] the target is unchanged. The experiment in a line: flow cytometry, MY31 staining of SKNAS cells after overnight treatment with 12.5 nM m906 (remaining surface CD56).
Assay [7] has the same target. The experiment in a line: flow cytometry, MY31 staining of SKNAS cells, untreated.
Assay [8] has the same target. The experiment in a line: flow cytometry, MY31 staining of Kelly cells, untreated.
Assay [9] has the same target. The assay is described as follows: flow cytometry, MY31 staining of SKNAS cells after overnight treatment with 25 nM control IgG.
Assay [10] has the same target. The assay is described as follows: flow cytometry, MY31 staining of SKNAS cells after overnight treatment with 25 nM m906 (remaining surface CD56).
Assay [11] has the same target. The experiment in a line: flow cytometry, isotype control staining of SKNAS cells.
Assay [12] has the same target. The experiment in a line: flow cytometry, isotype control staining of Kelly cells.

In the case of anti-CD56 antibody MY31, the Geometric Mean in assay [1] worked out at 6420; in [2], 63700; in [3], 7150; in [4], 6030; in [5], 10300; in [6] it was 10200. For the same substance, the Geometric Mean came to 12500 in [7], 53700 in assay [8], 13300 in [9] and 10600 in assay [10].
Regarding PE Isotype Control (antibody), the figures for the Geometric Mean in assay [11] and in assay [12] were 10700 and 4710, respectively.
